Test results from paper PMC2700067.
Like-named read-outs stand apart in the source and are kept apart here.

Assays:
[1] = target: Gag-CY (HIV-1); experiment: split reporter (BiFC, NanoBiT); BiFC quantified by flow cytometry: 293T cells co-transfected with 0.25 μg of each BiFC construct and mRFP1, harvested about 14 h after transfection and fixed; percent of mRFP+ cells that are YFP+, and mean intensity of YFP+ cells
[2] = target: Gag-CY (HIV-1); experiment: as above; remark: listed apart in the source

## Gag-NY (natural protein)
[1]
  percent of mRFP+ cells that are YFP+ (BiFC): 3.3%
[2]
  percent of mRFP+ cells that are YFP+ (BiFC): 3.5%
